Laboratory results as given in patent US20100263089A1, “USE OF P[…] FROM A PA1B LEGUME ALBUMEN AS INSECTICIDE” (Institut National de la Recherche Agronomique, priority 1998, published 2010).

Legend:
[1] = Stability of the entomotoxic activity (storage in dry seeds, heating)
Procedure: In addition, this activity is not affected by heating to 100° C.

humans or higher animals = settings: present in legumes of the conventional diet; no test described; cited from earlier work

Q: What does the source list for “PAlb protein: pea albumin PA1b (SEQ ID NO: 7) described by HIGGINS et al. (ASCNGVCSPFEMPPCGTSACRCIPVGLVVGYCRNPSG)”?
A: entomotoxic/insecticidal activity after storage ([1]; dry seeds stored for several years): conserves its insecticidal activity; entomotoxic/insecticidal activity after heating ([1]; heating to 100° C.): not affected; toxicity for humans or higher animals (humans or higher animals): not toxic
